Results published in patent publication US20240360242A1 (KISOJI BIOTECHNOLOGY, published 2024).
Like-named read-outs stand apart in the source and are kept apart here.

T1: recombinant human TROP2 extracellular domain (aa 1-274) comprising His tag (human, UniProt P09758 27-274)
T1 construct: Used here for all assays on recombinant human TROP2 (ELISA, immunoblot, SPR, crystal), although only some of them name the catalogue number; also called human recombinant TROP2; recombinant human TROP2 protein; not shown: His tag
T1 sequence: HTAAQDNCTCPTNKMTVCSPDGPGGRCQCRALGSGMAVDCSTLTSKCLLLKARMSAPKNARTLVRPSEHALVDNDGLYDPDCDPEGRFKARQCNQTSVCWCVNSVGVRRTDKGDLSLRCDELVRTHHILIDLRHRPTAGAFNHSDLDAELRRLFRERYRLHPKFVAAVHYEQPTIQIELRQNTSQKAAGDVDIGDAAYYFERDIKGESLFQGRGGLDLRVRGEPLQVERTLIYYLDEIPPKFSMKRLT

T2: recombinant cynomolgus/Rhesus TROP2 full-length extracellular domain (cynomolgus/Rhesus, UniProt P09758 27-274 (human entry))
T2 construct: also called cynomolgus TROP2
T2 chain: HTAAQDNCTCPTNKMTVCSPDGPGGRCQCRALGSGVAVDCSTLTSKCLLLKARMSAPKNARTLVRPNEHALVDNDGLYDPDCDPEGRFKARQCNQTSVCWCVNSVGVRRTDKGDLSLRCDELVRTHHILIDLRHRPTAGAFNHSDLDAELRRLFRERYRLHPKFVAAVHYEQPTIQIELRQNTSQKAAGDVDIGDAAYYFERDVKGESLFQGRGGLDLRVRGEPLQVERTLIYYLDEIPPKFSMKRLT


Experiments:
[1] = molecular target: T1, recombinant human TROP2 extracellular …; assay: SPR
[2] = molecular target: T1, recombinant human TROP2 extracellular …; assay: ELISA, coated rh TROP2
Procedure: (§1) Human TROP2 recombinant proteins were coated on 96-well ELISA plates at the concentration of 1 μg/mL. Plates were covered with adhesive plate cover and stored at 4° C. overnight. The next day, plates were washed 3× with washing buffer (PBS with 0.1% Tween™ 20). Plates were blocked with 2% fat-free BSA in washing buffer for 1 hour at 37° C. During the incubation time, the TROP2 reference antibodies, as well as the humanized variants, were diluted in the blocking buffer to the indicated concentrations. […] After blocking, the blocking buffer was removed from the wells and 100 μL of anti-TROP2 sdAbs dilutions were transferred to the corresponding wells. Plates were covered with adhesive plates cover and incubated at 37° C. for 1 hour. During the primary antibody incubation, the secondary antibody (goat anti-human IgG, HRP conjugated) was diluted 1 in 5000 with the blocking buffer. Plates were washed 3× with blocking buffer, followed by secondary antibody incubation for another 1 hour at 37° C. After the secondary antibody incubation, plates were washed 3× with washing buffer and added with 100 μL of ELISA chemiluminescent substrate (Thermofisher). The luminescence signal was detected by SpectraMax i3x at […].

[3] = molecular target: T1, recombinant human TROP2 extracellular …; assay: ELISA, coated rh TROP2; remark: listed apart in the source
Procedure: as §1

[4] = molecular target: T2, recombinant cynomolgus/Rhesus TROP2 …; assay: ELISA on coated recombinant TROP2 ECD, 1:5 dilutions from 1000 nM, RLU
Procedure: (§2) TROP2 full-length extracellular domain recombinant proteins including cynomolgus/Rhesus (FIG. 12A), human (FIG. 12B), mouse (FIG. 12C), and rat (FIG. 12D) were coated on 96-well ELISA plates at the concentration of 1 μg/mL. Plates were covered with adhesive plate cover and stored at 4° C. overnight. The next day, plates were washed 3× with washing buffer (PBS with 0.1% Tween™ 20). Plates were blocked with 2% fat-free BSA in washing buffer for 1 hour at 37° C. During the incubation time, the anti-TROP2 sdAbs were diluted in the blocking buffer to the indicated concentrations. In brief, the anti-TROP2 sdAbs starting concentration was 1000 nM and serial diluted 1 in 5 to 0.02048 pM. After blocking, the blocking buffer was removed from the wells and 100 μL of anti-TROP2 sdAbs dilutions were transferred to the corresponding wells. Plates were covered with adhesive plates cover and incubated at 37° C. for 1 hour. During the primary antibody incubation, the secondary antibody (goat anti-human IgG, HRP conjugated) was diluted 1 in 5000 with the blocking buffer. Plates were washed 3× with blocking buffer, followed by secondary antibody incubation for another 1 hour at 37° C. After the secondary antibody incubation, plates were washed 3× with washing buffer and added with 100 μL of ELISA chemiluminescent substrate (Thermofisher). The luminescence signal was detected by SpectraMax i3x at […].

[5] = molecular target: T1, recombinant human TROP2 extracellular …; assay: as above
Procedure: as §2

[6] = molecular target: T1, recombinant human TROP2 extracellular …; assay: competitive ELISA on coated recombinant human TROP2, competitor KD003-His (14285.7 pM per text), anti-His-HRP
Procedure: The epitope characterization was assessed by competitive ELISA (FIG. 8 and FIG. 9). Microplates were coated with human recombinant TROP2 at 4° C. overnight. After washing, plates were blocked with blocking buffer (PBS+2% BSA), for 1 hour at room temperature. Meanwhile, the dilution for anti-TROP2 VHH sdAbs was prepared with blocking buffer making two different dilutions depending on the tag. For sdAbs with His tag, the antibody was diluted to 28571.4 pM. For sdAbs without tag, antibodies were serially diluted from 2857142.9 pM to 0.29 pM (8 dilutions, 10×). After that, equal volume of the his-tagged sdAbs and serial diluted non-tagged sdAbs were mixed, to make the final concentration of his-tagged sdAbs 14285.7 pM and non-tagged sdAbs from 1428571.4 pM to 0.14 pM. After washing two times, the mixed antibody contents were added into the wells and the plates were incubated for 2 hours at room temperature. The HRP-conjugated anti-6× His was diluted to 1:5000 and added to the wells after washing three times. Any unbound conjugate was removed by washing after 1 hour incubation at room temperature, and the colorimetric reaction was performed by adding the same volume of Supersignal ELISA Pico Luminol/Enhancer and SuperSignal ELISA Pico Stable Peroxide Solution and detected on SpectraMax i3x Microplate Reader. Positive and negative controls were included in each plate.

[7] = molecular target: T1, recombinant human TROP2 extracellular …; assay: ELISA, coated rh TROP2, normalized to KD005

Kd [1] | koff [1] | kon [1] | EC50 [2] | EC50 [3] | EC50% to KD005 [3] | EC50 (read off the curve) [4] | EC50 (read off the curve) [5] | IC50 (read off the curve) [6] | EC50 relative to KD005 [7] | Binder
0.0432 nM | 5.69e-05 s⁻¹ | 1.32e+06 M⁻¹ s⁻¹ | 0.07 nM | 0.055 nM | 0.688 ratio to KD005 | ~0.2 nM | ~0.2 nM | ~60 nM |  | KD002 (antibody, human IgG1, V domains shown, also called anti-TROP2 sdAb KD002) VH: QVQLQESGGGMVQVGGSLRLSCAASGFPFSSADMSWVRQAPGKGPEWVSYINADGSKTYYPDSVKGRFTISRDNAKNTLYLLMNNLKPEDTALYRCARAKLTDTHYVEDYWGQGTQVTVSS
0.0459 nM | 4.88e-05 s⁻¹ | 1.06e+06 M⁻¹ s⁻¹ |  |  |  | ~0.2 nM | ~0.2 nM | ~30 nM |  | KD003 (antibody, human IgG1, V domains shown, also called anti-TROP2 sdAb KD003) VH: QVQLQESGGGMVQPGGSLRLSCAASGFTFSNYDMSWVRQAPGKGPEWVSYINAGGSNTDYPDSVKGRFTISRDNAKNMLYLLMNNLKPEDTALYRCARAKLTDTHYVEDYWGQGTQVTVSS
0.0826 nM | 7.54e-05 s⁻¹ | 913000 M⁻¹ s⁻¹ |  |  |  | ~0.2 nM | ~0.2 nM | ~40 nM |  | KD001 (antibody, human IgG1, V domains shown, also called anti-TROP2 sdAb KD001) VH: QVQLQESGGGMVHPGGSLRLSCAASGFTFSGSDMSWVRQAPGKGPEWVSYITSGGTTYYPDSVKGRFTISRDNAKNTLYLQMNSLTPDDTALYRCAKARLTDSHYVEDAWGQGTQVTVSS
0.0294 nM | 4.42e-05 s⁻¹ | 1.51e+06 M⁻¹ s⁻¹ |  |  |  | ~0.2 nM | ~0.2 nM | ~40 nM |  | KD004 (antibody, human IgG1, V domains shown, also called anti-TROP2 sdAb KD004) VH: QVQLQESGGGLVQPGRSLRLSCAASGFTFSGSDMSWVRQAPGKGPEWVSYITGSGTTYYPDSVKGRFTTSRDNAKNMLYLQMNSLKPDDTALYRCAKARLTDSHYVEDAWGQGTQVTVSS
0.0268 nM | 4.27e-05 s⁻¹ | 1.59e+06 M⁻¹ s⁻¹ |  | 0.08 nM | 1 ratio to KD005 | ~0.2 nM | ~0.2 nM | ~40 nM | 1 ratio to KD005 | KD005 (antibody, human IgG1, V domains shown, also called anti-TROP2 sdAb KD005) VH: QVQLQESGGGLVEAGGSLRLSCAASGFTFSGSDMSWVRQAPGKGPEWVSYITSGGTTYYPDSVKGRFTISRDNAKNTLYLQMNSLKPDDTALYRCAKSRLTDSHYVEDAWGQGTQVTVSS
